Patent US20230312724A1 (KADMON, published 2023)
Blank lines part the entries; values can stand above or below the binder they belong to.

What was measured:
human B7-H4-Fc [1] = biological target: T1, human B7-H4-Fc (human); assay: SPR (Biacore)
T1 construct: also called hB7-H4-Fc; hB7-H4 Fc
In short: (§1)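 Kinetic constants came from a 1:1 Langmuir fit of binding at 25 °C in HBS-EP, pH 7.4. Analyte (100 nM to 0.1 nM) flowed for 180 s, then dissociated for 1000 or 1200 s, over amine-coupled human B7-H4-Fc, human B7-H4-his or mouse B7-H4-Fc surfaces at 50-100 RU.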

human B7-H4-his [2] = biological target: T2, human B7-H4-his (human, UniProt Q7Z7D3 25-259); assay: SPR (Biacore)
T2 construct: also called hB7-H4-his; hB7-H4 his; not shown: his tag
T2 sequence: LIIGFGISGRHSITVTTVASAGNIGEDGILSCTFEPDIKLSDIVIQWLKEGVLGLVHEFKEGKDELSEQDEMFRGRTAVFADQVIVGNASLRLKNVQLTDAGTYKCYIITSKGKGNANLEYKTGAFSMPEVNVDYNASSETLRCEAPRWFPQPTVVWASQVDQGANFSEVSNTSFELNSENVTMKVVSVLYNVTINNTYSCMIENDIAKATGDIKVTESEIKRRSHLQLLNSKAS
In short: as §1

[3] = biological target: T3, hB7-H4 (soluble human B7-H4, construct not named) (human, UniProt Q7Z7D3 25-259, limits assumed); assay: ELISA, hB7-H4
T3 construct: also called soluble hB7-H4
T3 sequence: T2 sequence
In short: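 ~1-2 μg/ml antigen coated o/n 4° C; 3% milk block; Ab serial dil., RT 1-1.5 h; PBS-T wash; HRP-anti-hFab; TMB/1N H₂SO₄; A450. EC50 from OD vs. conc.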

[4] = biological target: T3, hB7-H4 (soluble human B7-H4, construct …); assay: SPR (Biacore)
[5] = biological target: T4, mB7-H4 (soluble mouse B7-H4, construct not named) (mouse, UniProt Q7TSP5 25-257, limits assumed); assay: ELISA, mB7-H4
T4 sequence: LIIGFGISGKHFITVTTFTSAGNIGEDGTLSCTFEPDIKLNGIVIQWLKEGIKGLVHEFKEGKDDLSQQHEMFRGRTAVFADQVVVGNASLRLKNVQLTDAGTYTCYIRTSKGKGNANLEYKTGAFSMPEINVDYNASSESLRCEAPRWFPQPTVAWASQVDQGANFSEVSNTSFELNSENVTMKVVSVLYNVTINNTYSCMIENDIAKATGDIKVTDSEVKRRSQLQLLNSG
Protocol: (§2) About 1-2 μg/ml of human or mouse B7-H4-Fc (or his-tagged) was immobilized on ELISA plates (Immuno 2HB, Thermo scientific, cat #3455) at 4° C. overnight. After blocking the plates with 3% PBS+milk, serial diluted antibodies were added to the blocked plates and incubated at RT for 1-1.5 h. After washing the plates with PBS-T (0.05%), horse radish peroxidase (HRP)-conjugated antibody targeting the hFab was added to the plate. Signals were developed by adding 3,3′,5,5′-Tetramethylbenzidine (TMB (followed 1N of H₂SO₄ to stop the reaction. The OD at 450 nm was read by ELISA plate reader (Infinite M1000 from TECAN). GraphPad from Prism was used to plot OD450 vs. antibody concentration curve and to calculate the EC50 values.

[6] = biological target: T5, human B7-H4 expressed on cells (human, UniProt Q7Z7D3 25-282); assay: flow cytometry, SK-BR-3 cells
T5 construct: Transfected CHO cells or tumor cell lines that carry hB7-H4; also called cellular hB7-H4
T5 sequence: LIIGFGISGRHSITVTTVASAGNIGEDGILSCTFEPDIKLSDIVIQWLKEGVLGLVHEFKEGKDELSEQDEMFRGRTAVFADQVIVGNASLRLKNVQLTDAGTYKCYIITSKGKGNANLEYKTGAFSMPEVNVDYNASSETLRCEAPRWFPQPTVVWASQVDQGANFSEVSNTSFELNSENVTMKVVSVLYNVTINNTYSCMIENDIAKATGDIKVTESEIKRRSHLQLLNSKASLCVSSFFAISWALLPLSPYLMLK

[7] = biological target: T6, mouse B7-H4 expressed on cells (mouse, UniProt Q7TSP5 25-257); assay: flow cytometry, mB7-H4/CT26 cells
T6 construct: also called cellular mB7-H4; mB7-H4/CT26
T6 sequence: T4 sequence

human B7-H4-Fc [8] = biological target: T1, human B7-H4-Fc; assay: ELISA on coated hB7-H4-Fc
Protocol: as §2

mouse B7-H4-Fc = biological target: T7, mouse B7-H4-Fc (mouse; human); assay: ELISA on coated mB7-H4-Fc
T7 construct: also called mB7-H4-Fc; mB7-H4-hFc
T7 sequence (chain, as listed by the source): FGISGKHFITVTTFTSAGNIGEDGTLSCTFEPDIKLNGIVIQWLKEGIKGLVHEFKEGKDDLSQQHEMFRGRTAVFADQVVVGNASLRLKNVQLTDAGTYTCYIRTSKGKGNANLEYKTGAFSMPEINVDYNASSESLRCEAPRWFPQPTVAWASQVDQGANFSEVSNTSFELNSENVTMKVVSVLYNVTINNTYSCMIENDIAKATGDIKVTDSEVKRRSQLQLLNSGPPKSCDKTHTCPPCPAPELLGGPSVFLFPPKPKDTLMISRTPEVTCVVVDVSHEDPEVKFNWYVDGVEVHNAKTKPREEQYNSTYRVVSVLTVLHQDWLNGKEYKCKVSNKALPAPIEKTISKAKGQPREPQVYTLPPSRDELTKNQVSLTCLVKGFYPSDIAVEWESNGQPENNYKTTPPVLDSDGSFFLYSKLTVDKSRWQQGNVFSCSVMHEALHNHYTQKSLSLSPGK
Protocol: as §2

human B7-H4-his [9] = biological target: T2, human B7-H4-his; assay: ELISA on coated hB7-H4-his
Protocol: as §2

mouse B7-H4-his = biological target: T8, mouse B7-H4-his (mouse, UniProt Q7TSP5 25-257); assay: ELISA on coated mB7-H4-his
T8 construct: also called mB7-H4-his; mB7-H4-His; not shown: his tag
T8 sequence: T4 sequence
Protocol: as §2

[10] = biological target: T9, IgV domain of mouse B7-H4-Fc (mouse; human); assay: ELISA, coated mB7-H4 IgV domain
T9 construct: also called mB7-H4 IgV domain
T9 sequence (chain, as listed by the source): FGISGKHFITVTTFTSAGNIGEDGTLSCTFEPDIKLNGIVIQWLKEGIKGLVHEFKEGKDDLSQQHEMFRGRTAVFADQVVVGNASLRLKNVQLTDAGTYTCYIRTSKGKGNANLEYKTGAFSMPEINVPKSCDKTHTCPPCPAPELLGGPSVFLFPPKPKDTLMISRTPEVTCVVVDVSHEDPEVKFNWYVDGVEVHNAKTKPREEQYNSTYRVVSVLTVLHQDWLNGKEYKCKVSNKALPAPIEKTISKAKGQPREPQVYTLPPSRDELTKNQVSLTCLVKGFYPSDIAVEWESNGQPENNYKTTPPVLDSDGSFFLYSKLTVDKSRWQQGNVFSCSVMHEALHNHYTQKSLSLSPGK

[11] = biological target: T10, IgC domain of human B7-H4-Fc (human); assay: ELISA, coated hB7-H4 IgC domain
T10 construct: also called hB7-H4 IgC domain
T10 sequence (chain, as listed by the source): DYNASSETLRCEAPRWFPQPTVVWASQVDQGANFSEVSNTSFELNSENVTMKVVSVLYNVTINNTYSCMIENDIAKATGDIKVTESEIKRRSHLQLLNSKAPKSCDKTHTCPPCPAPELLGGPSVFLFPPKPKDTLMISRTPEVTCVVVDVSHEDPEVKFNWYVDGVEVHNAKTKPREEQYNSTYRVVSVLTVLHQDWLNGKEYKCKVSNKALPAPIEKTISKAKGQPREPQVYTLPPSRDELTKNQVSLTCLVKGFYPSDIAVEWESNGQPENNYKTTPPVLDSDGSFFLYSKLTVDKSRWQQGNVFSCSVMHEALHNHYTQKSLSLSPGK

[12] = biological target: T11, IgV domain of human B7-H4-Fc (human); assay: ELISA on coated IgV domain of hB7-H4
T11 construct: also called hB7-H4 IgV domain
T11 sequence (chain, as listed by the source): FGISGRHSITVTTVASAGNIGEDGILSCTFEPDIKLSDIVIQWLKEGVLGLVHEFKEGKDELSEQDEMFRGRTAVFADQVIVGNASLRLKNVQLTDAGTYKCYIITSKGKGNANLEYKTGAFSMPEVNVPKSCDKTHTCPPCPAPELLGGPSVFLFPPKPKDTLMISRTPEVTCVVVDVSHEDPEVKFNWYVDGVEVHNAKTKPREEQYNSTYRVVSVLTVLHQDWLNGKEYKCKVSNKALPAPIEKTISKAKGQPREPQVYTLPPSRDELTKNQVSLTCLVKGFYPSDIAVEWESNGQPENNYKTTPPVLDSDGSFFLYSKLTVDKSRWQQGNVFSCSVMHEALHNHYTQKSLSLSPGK

[13] = biological target: T9, IgV domain of mouse B7-H4-Fc; assay: ELISA on coated IgV domain of mB7-H4
[14] = biological target: T4, mB7-H4 (soluble mouse B7-H4, construct …); assay: SPR (Biacore); values equal to Table 11

T1 sequence (chain, as listed by the source): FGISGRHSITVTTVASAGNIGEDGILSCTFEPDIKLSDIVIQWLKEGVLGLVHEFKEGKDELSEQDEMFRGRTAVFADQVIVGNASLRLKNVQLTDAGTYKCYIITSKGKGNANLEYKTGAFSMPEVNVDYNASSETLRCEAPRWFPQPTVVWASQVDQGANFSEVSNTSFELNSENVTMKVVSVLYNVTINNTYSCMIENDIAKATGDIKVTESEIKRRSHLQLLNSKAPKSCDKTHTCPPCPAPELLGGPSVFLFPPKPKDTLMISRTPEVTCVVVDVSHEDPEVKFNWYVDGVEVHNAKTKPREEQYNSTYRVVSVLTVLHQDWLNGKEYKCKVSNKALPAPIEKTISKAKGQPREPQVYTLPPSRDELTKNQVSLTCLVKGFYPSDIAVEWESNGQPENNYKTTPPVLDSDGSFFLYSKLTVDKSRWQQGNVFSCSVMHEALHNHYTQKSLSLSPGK

Kd (human B7-H4-Fc [1]): 0.45 nM | Kd (human B7-H4-his [2]): 0.11 nM | EC50 [3]: 0.106 nM | Kd [4]: 0.499 nM | EC50 [5]: 0.139 nM | EC50 [6]: 2.64 nM | EC50 [7]: 2.06 nM | EC50 (read off the curve) (human B7-H4-Fc [8]): ~0.1 nM | EC50 (read off the curve) (mouse B7-H4-Fc): ~0.1 nM | EC50 (read off the curve) (human B7-H4-his [9]): ~0.2 nM | EC50 (read off the curve) (mouse B7-H4-his): ~0.2 nM | EC50 (read off the curve) [10]: ~0.3 nM | binding result [11]: no binding (tested: log 1 nM (10 nM)) | EC50 (read off the curve) [12]: ~0.2 nM | EC50 (read off the curve) [13]: ~0.4 nM | Kd [14]: 0.499 nM
B1: Control antibody 1 (antibody 20502 described in US20190085080A1) (antibody, V domains shown)
VH: QLQLQESGPGLVKPSETLSLTCTVSGGSIKSGSYYWGWIRQPPGKGLEWIGNIYYSGSTYYNPSLRSRVTISVDTSKNQFSLKLSSVTAADTAVYYCAREGSYPNQFDPWGQGTLVTVSS
VL: EIVMTQSPATLSVSPGERATLSCRASQSVSSNLAWYQQKPGQAPRLLIYGASTRATGIPARFSGSGSGTEFTLTISSLQSEDFAVYYCQQYHSFPFTFGGGTKVEIK
notes: also called (+) control Ab1; (+) Ab1

Kd (human B7-H4-Fc [1]): 0.107 nM | Kd (human B7-H4-his [2]): 0.0355 nM | EC50 [3]: 0.06 nM | Kd [4]: 0.152 nM | EC50 [5]: 0.051 nM | EC50 [6]: 2.82 nM | EC50 [7]: 7.82 nM | EC50 (read off the curve) (human B7-H4-Fc [8]): ~0.08 nM | EC50 (read off the curve) (mouse B7-H4-Fc): ~0.08 nM | EC50 (read off the curve) (human B7-H4-his [9]): ~0.1 nM | EC50 (read off the curve) (mouse B7-H4-his): ~0.1 nM | EC50 (read off the curve) [10]: ~0.2 nM | binding result [11]: no binding (tested: log 1 nM (10 nM)) | EC50 (read off the curve) [12]: ~0.1 nM | EC50 (read off the curve) [13]: ~0.07 nM | Kd [14]: 0.152 nM
B2: 39A11/57G8 (antibody, human IgG1, V domains shown)
VH: EVQLLESGGGLVQPGGSLRLSCAASGFTFSSYGMHWVRQAPGKGLEWVASISSSSGYIYYADSVKGRFTISRDNSKNTLYLQMNSLRAEDTAVYYCARASSGMDVWGQGTTVTVSS
VL: DIQMTQSPSSLSASVGDRVTITCRASQSIRSYLNWYQQKPGKAPKLLIYYASSLQSGVPSRFSGSGSGTDFTLTISSLQPEDFATYYCQQYYSTPLTFGQGTKVEIK
notes: 39A11 VH with 57G8 VL
